Assay results reported in the nanobody polyreactivity screen of Harvey et al. (2022).

Test: yeast display, Sf9 membrane polyspecificity reagent, FACS + sequencing; frameworks hold sequencing errors
How it was run: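 A synthetic nanobody library was expressed on Saccharomyces cerevisiae BJ5465 by galactose induction for 36–48 hours. The library was stained for 1 hour at 4 °C with 10% biotinylated, detergent-solubilized Sf9 membrane reagent and enriched with streptavidin microbeads before FACS. Low and high (top ~1%) gates were set on anti-HA fluorescence for expression and streptavidin fluorescence for reagent binding, and each polyreactivity label reflects the gate of origin.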

| Sequence | polyreactivity (PSR sort gate) |
| --- | --- |
| QVQLVESGGGLVQAGGSLRLSCAASGLIFNRNDMGRYRQAPGKETELVAAISGDGGITYYADSVKGRFTISRDNAKNTVYLQMNSLKPEDTAVYYCNAGFTWGDWYDYWGQGTQVTVSS | low polyreactivity |
| QVQLVESGGGLVQAGGSLRLRCAASGRTFAVYAMGWYRQAPGKERELVAAITLGASRSYYADSVKGRFTISRDNAKNTVYLHMNSLKPEDTAVYYCNAVGRRNVVSSLNDYWGQGTQVTVSS | low polyreactivity |
| QVQLVESGGGLVQAGGSLRLSCAASGRTFSNNVMGWYRQAPGKERELVAAISGRGGRTYYADSVKGRFTISRDNAKNTVYLQMNSLKPEDTAVYYCAAGAYWPDEYWGQGTQVSVSS | high polyreactivity |
| QVQLLESGGGLVQAGGSLRISCASSVRISPRYAMGWYRQAPGKERELVAAIDTSDGTTYYADSVKGRFTISRDNAMKTVYFQMNSLKPEDTAVYYCAAEGQLFDLYDYWGHGTQVTVSS | low polyreactivity |
| QVQLVESGGGLVQAGGSLRLNCAASGITIRRYAMGCYRQAPGNERELVAAITTGGGGTYYADSVKGRFTISRDNAMNTVYLQMNSLKPEDTAVYYCAATYWRTYPSYYWGQGTQVTVSS | high polyreactivity |
| QVQLVESGGGLVQAGASLRLSCASSGSISKSYAMGWYRQAPGKERELVAAISWRGGSTYADSVKGRFTISRDNAKNTVYLQMNSLKPVDTAVYYCAATNYGTFWVGQSERYDYWGQGTEVTVSS | low polyreactivity |
| QVQLVESGGGLVQAGGSLRLSCASSGRTFGINAMGWYRQAPGKERELVAVISFGDGGTYYADSVKGRFTISRDNAKNTVYLQMNSLNPEDSAVYYCATDYQSTSVWGGHFVINPYDYWGQGTQVTVSS | low polyreactivity |
| QVQLVESGGGLVQAGGSLRLSCAASGRTIGLYGMGWYRQAPGKEREFDAAITRRGGSTYYADSVKGRFTISRDHAKNTVYLQMNSLKPEDTADYYCAAGYSSRYRGGLDYWGQGTQVTVSS | high polyreactivity |
| QVQLVESGGGLVQAGGSLRLSCAASGRIFYSNAMGWYRQAPGKERELVATISRGGSTYADSVKGRFTISRDNAKNTVYLQMNSLKPEDTAVYYCAAGLQGYPRKFNYWGQGTQVTVSS | low polyreactivity |
| QVHLVESGGGLVQAGGSLRLSCAASGSILPFNAMGWYRQAPGKDRELVAAIDGSGGDTYYADSVKGRFTISRDNAKNTVYLHMNSLKPEDTAVYYCAAEYYYTSQLAKYHYGYEYWGQGTQVTVSS | high polyreactivity |
| QVQLVESGGGLVQAGGSLRLSCAASGGTFTKNAMGWYRQAPGKERELVAAINYSGGSTYYADSVKGRFTISRDNAKNTVYLQMNSLKPEDTAVYYCAADDYRDGFTQYDYWGQGTQVTVSS | low polyreactivity |
| QVQLGESGGGLVQAGGSLRLSCAASGRTFILNAMGWYRQAPGKERELVAAISWSGGSTYYADSVKGRFTISRDNAKNTVYLQMNSLKPEDTAVYYCAAVTYAYLFHTYDYWGQGTQVTVSS | low polyreactivity |
| QVQLVESGGGLVQAGGSLRLSCVASGRIFYNYAMGWYRQAPGNERELVAAISSSGGRTYYADSVKGRFTISRDNAKNTVYLQMNSLKPEDTAVYYCAADFHDASRPYGSWGQGTQVTVSS | low polyreactivity |
| QVHLVESGGGLVQAGGSLSLSCDASGYIISSYVMGWYRQAPGKERELVAAISRRGGSTYYADSVKGRFTISRDNAKNTVYLQMNSLIPEDTAVYYCAADGLSGYGSGRYYGMGYCGQGTQVTVSS | high polyreactivity |
| QVQLVESGGGLVQAGGSLRLSCSASGYISHYAMGWYRQAPGKERELVAAISRRGGSTYYADSVKGRFTISRDNAKNTVYLQMNSLKPEDTAVYYCNKATSYFTVRGYDYCGQGTQVTVSS | high polyreactivity |
| QVQLVESGGGLVQAGGSLRLSCAASGSIFNPYVMGWYRQAPGKERELVAAISSSGGRTYYADSVKGRFTISRDNAKNTVYLQMNSLKPEDTAVYYCAAIPRQGYDYWGQGTQVTVSS | high polyreactivity |
| QVQLVESGGRLVQAGGTLRLSCAASGFIFTPYAMGWYRQAPGKERELVAAITWRGARTYYADSVKGRFTISRDNANNTVYLQMNSLKPEDTAVYYCATTFTGYNKEFGYWGQGTQVTVSS | high polyreactivity |
| QVQLVESGGGLVQAGGSLRLSCAASGRIVEVYAMGWYRQARGKERELVAAISSGGGSTYYADSVKGRFTISRDNAKNTVYLQMNSQKPEDTAVYYCAARKPSVRGAPYYYWGQGTQVTVSS | high polyreactivity |
| QVQLVESGGGLVQAGGSLRLSCAASGRTIRVYAMGWYRQAPGKERELVARINFRGGSTRYADSVKGRFTISRDNAKNTVYLQMNSLKPEDTAVYYCAARPSSFYYSNGFDYWGQGTQVTVSS | high polyreactivity |
| QVQVVESGGGLVKAGGSLRLSCAASGGTFLINAMGWYRQAPGKERELVATITSGGTTYYADSVKGRFTISRDNAKNTVYLQMNSLKPEDTAVYYCATRGKGRYGYDSWGQGTQVTVSS | low polyreactivity |
| QVQLVESGGGLVQAGGSLRLSCAASGYTFYRNAMGWYRQAPGKERELVAAIRDDGSTYYADSVKGRFTISRDNAKNTVYLQMNSLKPEDTAVYYCAAAIPRQYWFGISHRRYYYWGQGTQVTVSS | low polyreactivity |
| QVQLVESGGGLVQAGGSLRLSCAASGFTFLTYAMGWYRQAPGKERELVAAINNSGGRTYYADSVKGRFTISRDNAKNTVYLQMNSLKPEDTAVYYCAADYLRGKHRYGYWGQGTQVTVSS | high polyreactivity |

| Sequence | polyreactivity (PSR sort gate) |
| --- | --- |
| QVQLVESGGGLVQAGGSLRLSCAASGSIFSPNAMGWYRQAPGKERQLVAAIRSGGSTYYADSVKGRFTISRDNAKNSVYLQMNSLKPADTAVYYCAADTYTYYYYLARYYYWGQGTQVTVSS | low polyreactivity |
| QVQLVESGGGLVQAGGSLRLSCAASGITFNYYAMGWYRQAPGKERELVAAISWSGDRTYYADTVKGRFTISRDNAKYTVYLQMNSLKPEDTAVYYCAAKSVGEGDYWGQGTQVTVSS | low polyreactivity |
| QVQLVESGGGLVQAGGSLRLSCAASGRIFYYNAMGWYRPAPGKERELVAAITYIGGNTHYADSVKGRFTISRDNAKYTVYLQMNSLKPEDTAVYYCARGTVLGFYYEYGYWGQGTQVTVSS | low polyreactivity |
| QVQLVESGGGLVQAGGSLRLSCAASGSIFPGYAMGWYRQAPGKERELVATITWSGGSTYYADSVKGRFTISRDNAKNTVYLQMISLKTEDTAVYYCNADSNCYYQWNYYGLYDYWGQGTQVTVSS | low polyreactivity |
| QVQLVESGGGLVQAGGSLRLSCAASGYTFQYYAMGWYRQAPGKERELVAAISRGVGSTTYYADSVKGRFTISRDNAKNTVYLQMNSLKPEDTAVYYCNHDFLGDEYDYWGQGTQVTVSS | high polyreactivity |
| QVQLVESGGGLVQAGGSLRLSCAASGRTFSRNAMGWYRQAPGKEREFVASISRSGTSTYYADSVKGRFTISRDNAKNTVYLHMNSLKPEDTAVYYCAKTYASSQGYDYWGLGTQVTVSS | high polyreactivity |
| QVQLVESGGGLVQAGGSLRLSCAASGRVYAMGWYRQAPGKERELVAPITTSGGRTYYADSVKGRFTISRDNAKNSVYCQMNSLKPEDTAVYYCNKPGYPPSDMYYWGQGTQVNVSS | low polyreactivity |
| QFQLLESGGGVVHAAGSLRLSCAASGLIFPIYAMGWYRQAPGKERELVAVISSSGGSTNYADSVKGRFTISRDNAKNTVYLQMNSLKPEDTAVYYCAARYLQGRYDYWGQGTQVTVSS | high polyreactivity |
| QVQLVESGGGLVQAGGSLRLSCAASGRIFDGNAMGWYRQAPGKERELVATITRGGRTNYADSVKGRFTISRDNAKNTVYLQMNTLKPEDTAVYYCATSYPGYAYNQAWYPYGYWGQGTQVTVSS | low polyreactivity |
| QVQLVESGGGLVQAGGSLRLSCAASGRIFAHNAMGWYRQAPGKERELVAAINWSGGSTYYADSVTWRFTISRDNAKNTVYLQMNSLKPEDTAVYYCNNRYIHRSRAGYDYWGQGTQVTVSS | low polyreactivity |
| QEQLQESGGGLVQAGGSQSLSCAASGIIFDWFFMGWYRQAPGREREFVAAITYGATTNYADSVKGRFTISRDNGKITVYLQMNSLKPEDCAVYYCAAASPLYWVDDFESGWRYYYWGQGTQVTVSS | low polyreactivity |
| QVQLEESGGCLVQAGGSLRLSCAASGSTFSNYAMGWYRLAPGKESELVAAISYSGARTDYADSVKGRFTISRDNAKHTVYFQMHSLKPEDTAVYYCAAQVLSRHANPYAYYYWGQGTQVTVSS | high polyreactivity |
| QVQLVESGGGLVQAGGSLRLSCAASGSTFEVNAMGWYRQAPGKERELVAAISSSAGDTYYADSVKGRFTISRDNAKNTVYLQMNSLKPEDTAVYYCAAKGFPRSGYPYQAQHMYYWGQGTQVTVSS | low polyreactivity |
| QVQLVESGGGLVQAGGSLRLSCAASGRTSRYYAMGWYRQAPGKERELVATITRGGTTNYADSVKGRFTISRDNAKNNVYLQMNSLKPEDTAVYYCNKVFRAPGVSDYGYWGQGTQVTVSS | high polyreactivity |
| QVQLVESGGGLVQAGGSLRLSCAASGSTFGANALGWYRQAPGKERELVAAITGGSTFYADSVKGRFTISRDNAKNTVYLQMNSLKPEDTSVYYCAVDYTYSYVDYWSEYDYWGQGTQVTVSS | low polyreactivity |
| QVHLVESGGGLVQAGGSLRLSCAASASIFRYYAMGRYRQAPGKERELVATISSGGRTYYADSVKGRFTISRDNAKNTVYLQMNSLKPEDPAVYYCAAVRLTWTAKYNYWGQGTQVTVSS | high polyreactivity |
| QVHLVESGGGLVQAGGSLRLSCAASGLIFAFYGMGWYRPAPGKERELVASIDKSGGSTYADSVKGRFTISRDNAKNTVYLQMNSLKPEDTAVSYCATNVGGGWAYEYWGQGTQVTVSS | low polyreactivity |
| QVQLVESGGGLVQAGGSLRLSCAASGGIFSPNAMGWYRQAPGKERELVAAISSNGGSTNYADSVKGRFTISRDNAKNTVYLQMNSLKPEDTAVYYCAGLQKRRSYWRPFYWGQGTQVTVSS | low polyreactivity |
| QVQLVESGGGLVQAGGSLRLSCAASGSIFNRYAMGWYRQAPGKERELVAAITWNGGSTYYADSVKGRFTISRDNAKNTVYLQMNSLKPEDTAVYYCNKASLRGSYARYSYDYWGQGTQVTVSS | high polyreactivity |
| QVQLVESGGGLVQAGGSLRLSCAASGFTFAYYDMGWYRQAPGKERELVAAISQSGGSTYYADSVKGRFTISRDNAKNTVYLQMKSLKPEDTAVYYCNAYAYTQSYEYDYWGQGTQVTVSS | high polyreactivity |
| QVQLVESGGGLVQAGGSLRLSCAASGPIIDFYAMGWSRKAPGKERELVAAISWRGGSTYYADSVKGRFTISRDNAKNSVYLQMNSLKPEDTAVYYCANRFGPRYYWGQGTQVTVSS | low polyreactivity |
